# From the nanobody polyreactivity screen of Harvey et al. (2022)
# Experiment: yeast display, Sf9 membrane polyspecificity reagent, FACS + sequencing; frameworks hold sequencing errors
# How it was run: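 In a synthetic yeast display library (Saccharomyces cerevisiae BJ5465), nanobody expression was induced with galactose for 36–48 hours. FACS gates were set low and high (top ~1%) using anti-HA fluorescence for expression and streptavidin fluorescence for binding of the Sf9 membrane reagent. Each polyreactivity label is drawn from the gate of origin.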
row,Sequence,polyreactivity (PSR sort gate)
1,QVQLVESGGGLVQAGGSLRLSCAASGRIFGVYAMGWYRQAPGKERELVAAIRGGGSTKYADSVKGRFTISRDNAKNTVYLQMNSLKPEDTAVYYCAARKRYYKHDYWGQGTQVTVSS,low polyreactivity
2,QVQLVESGGGLVQAGGSLRLSCAASGRIFSRYAMGWYRQAPGKERELVAAIRSNGGRTYYADSVKGRFTISRDNAKNTVYLQMNSLKPEDTAVYYCAAAGGGKVSYRDYDYWGQGTQVTVSS,high polyreactivity
3,QVQLVESGGGLVQAGGSLRLSCAASGSTFAGYAMGWYRQAPGKERELVAAISRGGRTYYADSVKGRFTISRDNAKNTVYLQMNSLKPEDTAVYYCAKYSAWYTYTYDYWGQGTQVTVSS,high polyreactivity
4,QFQLVESGGGLVQAGGSLRLSCAASGFTSYRNALGWYRQAPGKERELVAAISRGDSTYYADSVKGRFTISRDNAKNTVYLQMNSLKAEDTAVYYCATPPTVYGWLAGYDYWGQGTQVTVSS,low polyreactivity
5,KVQLVESGGGLVQAGGSLRLSCAASGLTFSVYAMGWYRQAPGKERELVAAITNSGGSTYYADSVKGRFTISRDNAKNTVYLQMNSLIPEDTAVYYCAARYSTYYSGPPGLHLDYYYWGQGTQVTVSS,low polyreactivity
6,QVQLVESGGGLVQAGGSLRLSCAASGRILSSYAMGWNRQAPGKERELVAVISSGGNTYYADSVKGRFTISRDNAKNTVFLQMNSLKPEDTAVYYCNAARRGYLRRYYWGQGTQVNVSS,high polyreactivity
7,QVQLVESGGGLVQAGGSLRLSCAASGRIFVGYAMGWYRQAPGKERELVAAISSDGGSTYYADSVKGRFTISRDNAKNTVYLQMNSLKPEDTAVYYCNAYYGRFPYYADDYWGQGTQVTVSS,low polyreactivity
8,QVQLVESGGGLVQAGGSLRLSCASSGSTFDYYMGWYRHAPGKERELVAAITYSGGSTYYADSVKGRFTISRDNAKNTVYLQMKSLKPEDTAVYYCAKDRSTFDDFYSNYYWGQGTQVTVSS,low polyreactivity
9,QVQLVESGGGLVQAGGSLRLTCAASGRTFTLNSMGWYRQAPGKERELVAAIRRGGSTYYADSVKGRFTISRDNAKNTVYLQMNSLKPVDTAVYYCAAYKGSYGGYRMQYSYNYWGQGTQVTVSS,high polyreactivity
10,QVQLVESGGGLDQAGGSLRLSCAASGLTLAVNAMGCYRQAPGKERELVAAISRRGGSTYYADSVKGRFTISRDNSKNPVYLQMNSLKPEDTAVYYCAAKYNYSEMDSWGQGTQVTVSS,high polyreactivity
11,QVQLVESGGGLVQAGGSLRLSCAASGFTFISNAMGWYRQAPGKERELVAAISSSGGRTYYADSVKGRFTISRDNAKNTVYLQMNRLKPEDTAVYYCNADRSLLYSRKIEYDYWGQGTQVTVSS,low polyreactivity
12,QVQLVESGGGLVLTGGSLRLSCAASGSILGTYAMGWYRQAPGKERELVARISRGGSTNYADSVKGRFTISRDNAKNTVYLQMNSLKPEDTAVYYCAKRLYLPESWRYYYWGQGTQVTVSS,high polyreactivity
13,QVQLVESGGGLVQAGGSLRLSCAASGRTFVTYTMGWYRPAPGKERELVAAISRDGRTYYADSVKGRFTISRDNAKNTVYLQMNSLKPEDTAVYYCATRYKSPSFDYWGQGTQVTVSS,high polyreactivity
14,QVQLVESGGGLVQAGGSLRLSCAASGRTFPYYAMGWYRQAPGKERELVAAISSSGGSTYYADSVKARFTISGDNAKNTVYLQMNSLKPEDTAVYDCTRYSRLYLTDDDYWGQGTQVTVSS,high polyreactivity
15,QVQLVESGGGLVQAGGSLRLSCAASGIIFSQYAMGWYRQAPGKERELVAGITRSGGSTYYADSVKGRFTISRDNAKNTVYLQMNSLKPEDTAVYYCAAVQRYEYGYWGQGTQVTVSS,high polyreactivity
16,QVQLVESGGGLVQAGGSLRLRCAASGSIFYRNAMGWYRQAPGKERELVASITSGGRTNYADSLKGRFTISRDNAKNTVYLQMNSLKPEDTAVYYCAVQYHAASDHSYWGQGTQVTVSS,low polyreactivity
17,QVQLQESGAGLEQAGGSLRMSCAASGYISDIVTMGWYRQAPGKEREFVATIVVGSTTNYADSVKGRFTISRDNANNSVYLQPESGRYRGVLLRGWLLAVGKFTYWGQGTQETVSS,low polyreactivity
18,QVQLVESGGGLVQAGGSLRLSCAASGSTFVINAMGWYRQAPGKERELVAAISYSGDSTYADSVKGRFTISRDNEKNTVYLQMNSLKPEDTAVYYCAKYQYDYYTYDYWGQGTQVTVSS,low polyreactivity
19,QVQLVESGGGLVQAVGSLRLSCAASGRTFRTYTMGWYRQAPGKERELVAAISRGGSTNYADSLKGRFTISRDNAKNTVYLQMNSLKPEDTAVYYCNAKASFWSPYDYWGQGTQVTVSS,high polyreactivity
20,QVQLVESGGGLVQAGGSLRLSCAASGRIFYGYAMGWYSQAPGKEREVVATITGIGGSTYADSVKGRFTISRDHAKNTVYLQMNSLKPEDTAVYYCNAERGVYWGRYPYKYDYWGQGTQVTVSS,low polyreactivity
21,QVQLVESGGGLVQAGRSIRLSCAASGRTFLGNSLGWYRQAPGKEMELVAAITRNGGGTYYPDSVKGRFTISRDNAKNTVYLQMNSLKPEDTAVYYCAALTSLFWRGGGLDYWGQGTQVTVSS,high polyreactivity
22,QVQLVESGGGLVQAGGSLRLSSAASGNTFWHYAMGWYRQAPGKERELVAAITRSTGSTYYADSVKGRFTISRDNAKYSVYLQMNSLKPEDTAVYYCAADFYRHYFRVDSWGQGTQVTVSS,low polyreactivity

row,Sequence,polyreactivity (PSR sort gate)
1,HVQLVESGGGLVQAGGSLRLSCAASGLTYPRYTMGWYRQAPGKESELVAAISSSTGTTNYADSVKGRFTISRDNAKINVYLQMYSLKPEDTAVYYCAAGGSLYAYGYRSRYGYWGQGTQVTVSS,low polyreactivity
2,QVQLVESGGGLVQAGGSLRLSCAASGYIFNPNAMGWYRQAPGKERELVAAITWSGGNTYYADSVKGRFTISRDNAKNTVYLQMNSLKPEDTAVFYCNAEYRWPYWGQWYFKGYDYWGQGTQVTVSS,low polyreactivity
3,QVQLVESGGGIVQAGGSLRLSCAASGRTFVSYAKGWYRQAPGKERELVAAISSSGGRTYYADSVKGRFTISRDNAKNTVYLQMNSLKPEDTAVYYCNAVRFISARYDYWGQGTQVTVSS,high polyreactivity
4,QVQLVDSGGCLVQAGGSLRLSCDASGRISQNAMGWYRQAPGKERELVAAITFSGGSTYYADSVKGRFTISRDNAKNTVYLQMNSLKPEDTAVYYCNVRQYTDGLKYDYWGQGTQVTVSS,low polyreactivity
5,QVQLVESGGGLVQAGGSLRLSCAASGFIFGSYAMGWYRQAPGKERELVAAISTGGGSTYYADSVKGRFTISRDNAKNTVYLQMNSLKPEDTAVYYCATDYRVTVWHPYQWYIYGYWGQGTQVTVSS,low polyreactivity
6,QVQLVESGGGLVQAGGSLRLSCAASGRTFAKYAMGLYRQAPGKERELVAAITRGDTTNYADSVKGRFTISRDNAKNTVYLQMNSLKPEDTAVYYCAATPDPPHTYEYWGQGTQVTVSS,low polyreactivity
7,QVQLEESGGCLDQAAGSLRLTCADSGFIFLPNAMGWYRQAPGKERELVADITYDGGTTYYADSVKGRFTISRDNAKNTVYLQKNSLKPEDTAVYYCNAETYEFHRSRGDYDYWGQGTQVTVSS,low polyreactivity
8,QVQLVESGGGLVQAGGSLRLSCAASGRTFWAYAMGWYRQAPGKERELVAAISVSGGRTYYADSVKGRFTISRDNAKYTVYLQMNSLKPEDSAVYYCNKRYLKSYQYYWGQGSQVTVSS,high polyreactivity
9,QVQLQESGGGLVQASGSIFHEPNMCWYRQAPGKERELVAGISSGANTYYADSVKGRFTISRDNAKNTVYLQMNSLKPEDTAVYHCAVVVHLYTELRYWGQDTQVTVSS,high polyreactivity
10,QVQLVESGGGLVQAGGSLRLSCAASGSILGANVMGWYRQAPGKERELVASISKSGGNTFYADSVKGRFTISRDNAKNTVYLQLNRLKPEDTAVYYCAKRAHRYSYRYTYDYWGQGTQVTVSS,low polyreactivity
11,QVQLVESGGGLVQAGGSLRLSCAASGGIFGSYAMGWYRQAPGKERELVAAISGGSTYYADSVKGRFTISRDNAKNTVYLQMTSLKPEDTAVYYCAAGWSVWYQDFDYWGQGTQVTVSS,high polyreactivity
12,QVQLVESGGGLVQAGGSLRLSCAASGFTFDAYTMGWYREAPGKERELVAAINWSGDTTYYADSVKGRFTISRDNAMNTVYLQMNSLKPEDTAVYYCAAVWLNYGVWFDYWGQGTQVTVSS,high polyreactivity
13,QVQLVESGGGLVQAGGSLRLSCAASGSILRRNTMGWYRQAPGKERELVAAINKSGGSTYYADSVKGRFTISRDNAKNTVYLQMNSLKPEDTAVYYCNRDNYYGTKYDYWGQGTQVTVSS,low polyreactivity
14,QVQLVESGGGLVQAGGSLRLSCAASGRTFRYNAMGWYRQAPGKERELVASITYRGGSTYYADSVKGRFTISRDNAKNTVYLQMNSLKPEDTGVYYCATSVYSRPRKPRYYYWGQGTQVTVSS,high polyreactivity
15,QVQLVESGGGLVQAGGSLRLSCAASGSTFANNDMGWYRQAPGIEREMVADIRSGGNTNYADSVKGRFTISRDNAKNTVVLQMHSVKPEDTAVYYCATDGYRIDVYQPDYRYDYWGQGTQVTVSS,low polyreactivity
16,QVQLVESGGGLVQAGGSLRLSCAASGRIFRLYAMGWYRQSPGKERELVATITSGGTYYADSVKGRFTISRDNAKNTVYLQMNSLKPEDTAVYYCTARRRLRYDYWGQGTQVTVSS,low polyreactivity
17,QVQLVDSGGGLVQARGSLRLTCAASGRIYNLYAMGWYRQAPGKERELVAAIRGRGTSTYYADSVKVRFTISRDKAKNTVYFQMNSLKPEDTAVYYCASEGGYGPTLQDTSRYEYWGQGTQVTVSS,low polyreactivity
18,QVQLVESGGGLVQAGGSLRLSCAASGRTFYDYAMGWYRQAPGKERELVASINSDGSTYYADSVKGRFTISLDNAKNTVYLQMNSLKPEDTAVYYCAADALLYSVYYRMYGYDYWGQGTQVTVSS,low polyreactivity
19,QVQLVESGGGLVQAGGSLRLSCSASGSTFEGYAMGWYRQAPGKERELVAAITSTGSTNYADSVKGRFTISRDNAKNTVYLQMNSLKPEDTAVYYCAGYPGRVYYFLGHDYWVQGTQVTVSS,low polyreactivity
20,QVQLVESGGGLVQAGGSLRLSCAASGRIFRYYAMGWYRQAPGKERELVAAITSGGNTYYADSVKGRFTISRDNAKNTVYLQMNSLKPVDTAVYYCADGRNLYHFYYWGQGTQVTVSS,high polyreactivity
21,QVQLVESGGGLVQAGGSLRLSCAASGRTFSAYAMGWYRQAPGKERELVAAISRSGGSTYYADSVKGRFTISRDNAKNTVYLQMNSLKPEDTAVYYCAAKGGSGLYYWGQGTQVTVSS,high polyreactivity
